# According to the DeepSol protein solubility set:
# Assay: soluble on expression in E. coli; label from the status in PepcDB or PDB records
row,Sequence,soluble on expression in E. coli
1,GPGSMKTIALLSGGKDSILAMLMAHRYGHEPVVIANMAPVLESDGALRGAAENGTHGHDIDSYMYQTVGFEAVDSIAACLGLPLRRGRVRRGLAKDQSLLYSEQPPEEDEVESLYSLIRTVKEEFPEVQGLTSGAILSNYQRNRVELICDRLGLESLAYLWMRQPDEILDMADALHVQAILVKTASIGLMPRCLIGKTLEEARPTLEKMAELYHSHLAGEGGEYETIVLNCPLFHAEHLTVTALEVVMQDDNDISPSGHGLLTVARVPKSVEQQAKEAEVLARVRAGAVTFPSDTMPLLRSCAVYPLALSATASARGPGETIDLPLPATIRSALFLGSGTAAARDGIAHHTYASPLEAGASAAEALNACLTVLQTWAAERSLTPFYYHFSLPEPSWEVSCRAAYAGKVSHVCPPGLLVTVRDSRSRSAAAVEAEVLAAPTAAIQQHVLHAQSRSCWALGEPGPHSQARRVGLATGTSRLFVSATPGRVPATREVATASDLPAVCQQCITALAAAQHGEETSAALTDIAAQFVVAMSNCERYLTLFGCSFGDVDRAAVVATDDVPVSLLPALWQWTTQNTGALPFERVCQVVVVGALSGTEKIRVSMECVEVRGGGG,not soluble
2,GPGSMLRFTHRALTATPERFSVLGTTHPKPKRTGFGRNNKMRSKPSDNVAWYDKGPVEWLPRPVRLTYDHLDQLQQWMMRATLDGRTEEFNRIRDLHREWSQHPLMPVLGDVEPKFPLNLFKQNHRAKKRFLVRWHKANTPANWLWMPRGPTVVTPLHRTNPTQYPENWKQMVQRKSGTGTPS,not soluble
3,GPGSMLRRQCVPLRVVAAGLRLNSSSSGPSKTNDGGIPNATGMDNAPGLYAEKPSSTYCEEKYPNKVEEVGSLKPPTYDVPHGRSDNIKTPEFNTSLGKFDQAPYFTGGPPAMRYHGYKRDPAVEGVDYRDVLPKTPIEDHHPHMEFLSVTGRREGSTFLLANAGVNWELKAAAMSLYRTILKSLPMIKHYYWLLVPLPAMKDKIRLRFLQNQHTKDPDAIRHLLHNGWMEFQESIMFRRPR,not soluble
4,GPGSMLSTIKTRPQGPYCGDYFSIVEGRVDFPVDLDTFDISLTISGDVEECKNEPYVYDEVSGNVELTNAQDPGDCLGSILRRNQLTLMVTYHPDDDKISLDFGIAVVNLSPCP,not soluble
5,GPGSMLTRSLVCRASLQSRRRWEQRIVSVLSENKEEGVDAVAKRFQRVYKERRYTPVEEAFPPLAAAAAAPGLRSSAAKESVESVQQPANPLVLRVAFLGPQNAGKTSLVNSMALSNVGAVSNRYGSTKDWTKAVATVHETQLLLLDTPGIVPRDTQRVRRKFASGTAKAYDALFVSDLVVLALPVGVGFVEKEHKVVATEVVRRAAGRELPVVIAMTMMDKVQTPWHRELYFAMRTDLESLGLPTAATHEVSVKGGSGLVELKDCLCQYAKPGAWEHYRREATDLNPPQRVAELLRQTFMELLPHEIPHCMRHRVLGWTRKESGTTEVVVEAFFDRPAYMFTFYGKLEAICLRAQQVTERELAPQRFRFVFQAFIAPGGLSNS,not soluble
6,GPGSMPALKPLLVFGLRGTLVERIHVRHVPEGMPAADFTVGLVKVWLRPHMVEVLNELQEHCRLAIWSSTTARNTHPLVNAVFGSNMTLQAGAGATTAAPARQEAASASAVVAASASNGRSGRFGTKRRPTKAEAADEESASEAAINAPKPQRVHFEFVWTREHTRVDDFRRLNAAVNDDSHATVKDLSQVFAQFPSIAQPQNTVLIDDTPSKAKMQADNYLWLDTCSNLRIKDETSLYRLRDFVMRELVPAEDVRELLPRRIRM,soluble
7,GPGSMPGGGLEVIGTPALPHPSSASDADDAAAGCSFRLSQSGGDPRYVSSRVAGRMQDARHGAESRLVDGTATFLDFLAETSVERPLRVRLRQRARQSFVFFNLETAIDCLNLSWEAYAVQESRGDDFISTGIQVNAAEVPRAALGFVERVAMALLGLCFNPSPHVCHALDDSEEDAAAAISFTSGGDRTPLLDERRASRSRSPVRAPLGAEVASSATRATQADLAAAALFPHCGSSSTRSGSCQPFFRQPAPAASATSPCFGGTSSPPGAAAAGASSFSSSPSNRIGSFPTSASAATANAGADAARLPHMNPEQYGYHRVAVLEARGVQVVVVRMDTSGSCPVHIGKVPRLVIAFRGTDNVANVMEDIRFRQRTWKEMKTPTLSGRASVHSGFLELWMSLKERVIDVVLRELRSQCTPLEGSNAEVSAAGTTGHAGEGASTVAGCSPSQAGHDMFHATVPFSDIWSLRRNGGGRGCADTRQGAFGSEQGGFEGFMRVYVTGHSLGGALASLCAYTLRRMLLLIQYPEPDLVVYTFGQPRIGNFVFKQYYNRAVPCTFRVVNESDAVSGFNFFGGHHVGVQVNIDRHGNYICKPMYIERMFRPTRGRGFALANHAISAYASSLNAMANVYTHGACPLRCRQPYMGEIVSVSSTNSE,not soluble
8,GPGSMQQPGSHQIQPIDSLTPFLGGKWWIRARVTDKTDIRTWNKPTSQGKLFSFTLIDESAAIRATVFNDAVDTFEPLIVNGQVYYFSGGQVKNANRRFSNVNNDYELTFDRSSEIMLARQDTSTAALPMQRYNFVPIELLKQREVGSLVDVLGVVLKVDEVSSITQKSTGRELMKRNVKMGDMTAAVEVTFWNDEAKAWCYPVGTVVALRQLKVGSFDGVTLSSTYQTKIDINPTDLPDVKKLATWYVATGGANVTSLSSQGLGAASGAGGESDRGRKYLDEIQSEGIGRGLKPEYVDVRCVPIYFKQDAQWYDACPTCNKKVTEEGAQGDRFRCEKCDKTVTPTQRYLVSIQVTDNVSQAWLTLFNEAGIEFFGMEAAELKRRAQEDPLYIAKLAQGRMNRPVVMRLRVKEEMSSNSMTGEESDRLRMSVVRISEFMPIAGTSEETRRRLAQNLRTECDEILRLIEAYV,not soluble
9,GPGSMQTDFGDATTFSLRPDHKRKFRPNDIRPVVRSLLESRLENEVYKADEMQSISKEIADGVRDRIRSMELERYKIMVHCMIGEQRGQGLRAGCKMFWDSDTDDYFEEVYVTQHLFAVVTVFGLYQY,not soluble
10,GPGSMRSTAELSSPLSISLPCSLSAEPPHHTLPATTANIIALRRAADPSTFTHTHTNTARPPLPAPYFRQRDSSWCSHASPHAHRHTHTYPSLSLPAPRFFFAHRYAAAALPRRLPAIMTHEFHSLFLPLAAEEQAVFADFFPTLVASSTSIQDGVAGEHSLQPTVSATLDTYSSACATSPHSPGECGSLPEVGRGAATDAQARCDAPLRSLVFAIGSARADAVIVVLRRGDVVLYGLDRLHTPPYEKCRIRPLPTTQQLMAARENARRYSNADGAASAGSWTDASCSGGVAGSRSVVNGGVEATCAALLPLHIGYCCRIPLSASFSSATPPAGGPRRGGGGGSRDERDEDVVYLRGIVGSSDGRVSLFSDTSYTLSFAAHDIPVAQVDAVLLPPCTLDRRVSTNASPTTSTRGFSSTGAGANTRTAPSGELTSPTSPQPQERLARATQRLGLVTSGNDGVVLLWRRLGDSMSPIVVVRPSTFSSRAAYAVYHPSALSALLSSWAPPSQREAAVDAELSCPPSCLLHAATSTSHTLRVRQLASISPKPTHKSLSSAARRESVEEAAPTSMSAALPGSWSATVTAIAAHDSVTLVAMGASLLSLVKLNPRSAARVWKAAESITQLVLIDSVALAVCARSGTVHVLTIHPGTGRVVRQRVYYSYKNRAIHHTSLHVASLLMTIVDVCGSTELVQLPTDVMLPCDVRLRRGEYTSGDAANVNLLASMAALRAKVCIEAIKGGSGGGVSGSVAANEAEVTGGSTSMYEANAALDQLNERLLLARYAVPEECDNFMGANVHVF,not soluble
11,GPGSMSDVKSKEAGANPAASKSGSGEDVAETKLAVPRSLDTGSKKHPLNSSWTLWYDSLSTYDSERWELSLVEVITVRTVEEFFTMLHYCKPPHVLRVSAQYHFFREGVKPMWEDPSNKAGGKLWISLDDKPVGDVGGRKWENANTGGAAGGEKDNASAATNNSNSNQNAKAKKEEQETEKKPELDTMWENLLMAMVGEYLDPEPDGDHIMGLVLSRRKYHNRIALWLRDASASEAVARIEKKLVKEAGLPPAMKFIFTPHSTGK,soluble
12,GPGSMSGTLLKEELLQLDNKRRSIMRDIEEAMTFLNSTPVGLRGSLVDSEGFPRDDCDLYAVRRARHTVNCGHNDLKSIEATIHEKLSQLHEECRGEAEEQMQRDKMKKKSEDDQRRRDEQKQVMSSKEPFVRVVDVATGSPAEEGGLICGHLIVQYGDVDAEKVLEGGFGEMARVTSSYEGQMLRVWVRSPSDDDCGGARELFIVPQRWRGEGLLGCTFEPMKLN,soluble
13,GPGSMSINFSAPYLVTEMEEKVVTSLPSGDTASGSGESTASPPIVISAAVPYTEEEKKLLTEQLRRHQRQQSQGDDDSSWNETTLPFISSMVEKVLQLAAQNRESDSTKDSGSGDENKPQEKANATDDVAGADAVSKVDTFVEDNDYVLEQLRLQPWPFFTLPRLCEILADPYKYNSIGDKLRGEKLQSAIRRCVLVSAPLNCDVRNNSS,not soluble
14,GPGSMSLPCPSSSSPLLGSITSGVRSPSRGPVQQQQLLHQRHASMRLRLHKDGSICACPEKSGGGVSQACAPPLPATSAFARGKEEPSAKRHHAEPSSCPGPGGDSSSVDRSAAATVVTIAAPLLSIPNPSSRAAPSPFRFLCTSVGGCPVVGAKDARVHLPDSSARCDVSGSVAPRDLSTTSAHSKAHSTAAVGRASPSSGVVSPPLSATYPSLVSASHGARVVCSHPQSASASTVPGATIDTSAPSPVPSPPHRIHQHELRPADFRREEVLGEGSYSIVTLATHRASGLSFALKEIDRSRLRWRPLEAQLRWEINLQRTLRHPHIVRLYSYFITPDCISLVLEYCSGGTLLSRLRAAPQYRLSERQASRYTRHVAKALVHLHGLGVAHRDLKLENVLIDADGIAKLADFGWSRSVVHPLPSSKSAAAAQTAGDRNDAPCSSAEHNTSNEDPTEGVAEGRRTVCGTLDYLSPEMVSGQAHSAKTDVWSLGVMLAEMLTGTPPFYTESTQETLYAIQRLPPNLTGLHPKGHGPGLTGSGASTSASVCLILDEPVALSAGALSLIHAMLQKDPSARPTMPEVLGHPWLQKKKLARKS,not soluble
15,GPGSMSNNMLALPKVLLMGLRKSGKSSIQKVVFEGMQPHDSATLATTVQPEKSTVHSNDFVNFEVWDFPGQNDPFDSSNASRYDVNQLLENCGAIVYVLDCRELIDDARARLLDTISAAYRHNPELCVEVFIHKVDALSEDHQADLLASLQRRVEEEAKPLLENVQPLRLNFNLTSIYDHSVFQAFSLVVQKLIKSKTPYITELLQMLNSNSNIDLSYLFLSHSKIYVAVDERNRLKSRTYDLCSDAIEVVVKMSGIYMRQRDGVAGGVKDAFTDSVHSLAASATSRTIISSSLGSADGCASDVSELYRGANAVIQLSNEDCIYVRELPSSLTLVLMMKQTHLENRALIDRNVDIFYKAAFDIFSTSAS,not soluble
16,GPGSMSTSKEAADQSRKFGFKESREQYQQRKRQEKQLKWTERLSKEDLGKLRIELDSLKRARFLAPQQNERKCLVHRMIRDLEAAENKEPKEETPVVATMPSALDSDSDDDIFSGKGTLTNDEHKRLFIPRSVRKKPEEKKCEKTAQQLAGEAERELLAAVHDDDDLDSFLDSLR,soluble
17,GPGSMTDCWYIPEAVADRRDENRLSPNVPASYEVLGEAGIFYRHFDSEEVNDNIEGFIQPLLKKLNYQSYDVVNLSPANLGAEKFETLAEQHFMEHIHEDDEVRLILEGQGYFDVRDINDKWIRLLLKPGDCIVVPAGMYHRFTTDQSKCIKTLRIFKEAPQWIALNRGPEAEEKPARKEYLARLHAPAETAVGAVNGRTIFSLRYPLKLDAELTVITKRLLEQHSKQPLALAIYLTGSTDPTTGESWCPDCVLAKLHVARRFAELQGTYGKEHAIFLQLPVERASYLGNPNFFYRTHPILQLASVPTLLVLSPAKDAKEGGDVQWYDLLDVKVRTCDVDRTDVLNLE,soluble
